Assay results reported in the RNAGym collection of RNA variant scans (doi:10.1073/pnas.2313332121).

B1: TPR t1 (parent)
chain: GACCAAUCUGCCCUCAGAGCUCGAGAACAUCUUCGGAUGCAGAGGAGGCAGGCUUCGGUGGCGCGAUAGCGCCAACGUCCUCAACCUCCAAUGCAUCCCACCACAUGAUGAUGCCUGAAGAGCCUUGGUUUUUUG

Variants of: B1
Test: polymerase ribozyme fitness, log enrichment relative to wild type (log ratio); higher = more active; in vitro selection for triplet polymerase activity
Outline: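 Frozen incubation at −7 °C formed the core of a single, triplicate in vitro selection round applied to PCR-built, transcribed mutant libraries of each subunit of a heterodimeric triplet polymerase ribozyme. Extended constructs were gel-excised, captured with streptavidin beads and amplified by RT-PCR, and input and output libraries were Illumina-sequenced with a filter of ≥10 input reads and ≥1 read per output. Fitness is the logarithm of genotype enrichment relative to wild-type enrichment, with inverse-variance-weighted replicate averaging, and the logarithm is base 2.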

| Variant | polymerase ribozyme fitness (log ratio) |
| --- | --- |
| GACCAAUAUGCACUCAGAGCUCGAGAACAUCUUCGGAUGCAGAGGAGGCAGGCUUCGGUGCCGCGAUAUCGCCAACGUCCUCAACCUCCAAUGCAUCCCACCACAUGAUGAUGCCUGAAAAGCCUUGGGUUUUUG | -1.45 |
| GACCAAUAUGCCUUCAGAGCUCGAGAACAUCUUCGGAUGCAGAGGAGGGAGGCUUCGGUGGCGCGAUAGCGCCAACGUCCUCAACCUCCAAUGCAUCCCACCACAUGAUGAUGCCUGAAGAGCCUUGGUUUUUUG | 0.151 |
| GACCAAUAUGCCCUCAGAGCUCGAGAACAUCUUCGGAUGCAGAGGAGGCAGGCUUGGGUGGCGCGAUAGCGCCAACGUCCUCAACCUCCACUGCAUCCCACCACAUGAUGAUGCCUGAAGAGACUUGGUUUUUUG | 0.619 |
| GACCAAUAUGCCCUCAGAGCUCGAGAACAUCUUCGGAUGCAGAGGAGGCAGGCUUCGGUGGCGCGAUAGUGCCAACGUCCUCAACCUCCACUGCAUCCCACCACAUGAUGAUGCCAGAAGAGCCUUGGUUUUUUG | -2.96 |
| GACCAAUAUGCCCUCAGAGCUCGAGAACAUCUUCGGAUGUAGAGGAGGCAGGCUUCGGUGUCGCGAUAGCGCCAACGACGUCAACCUCCAAUGCAUCCCCCCACAUGAUGAUGCCUGAAGAGCCUUGGUUUUUUG | -6.33 |
| GACCAAUAUGGCUUCAGAGAUCGAGAACAUCUUCGGAUGCAGAGGAGGGAGGCUUCGGUGGCGCGAUAGCGCCAACGUCCUCAACCUCCAAUGCAUCCCACCACAUGAUGAUGCCUGAAGAGCCUUGGUUUUUUG | -3.3 |
| GACCAAUAUGCCCUCAGAGCUCGAGAACAUCUUCGGAUGCAGAGGAGGAAGGCUUCGGUGGCGUGAUAGCGCCAACGUCCUCAACUUCCAAUUUAUCCCACCACAUGAUGAUGCCUGAAGAGACUUGGUUUUUUG | -0.145 |
| GACCAAUAUGCCCUCAGAGCUCGAGAACAUCUUCGGAUGAAGCGGAGGCAGGCUUCGGUGGCGCGAUAGCGCCAACGUCCUCAACCGCCAAUGCAUCCCACCACAUGAUGAUGCCUGAAGAGCCUUGGUUUUUUG | -2.23 |
| GACCAAUAUGCCCUCAGAGCUCGAGAACAUCUUCGGAUGCAGAGGAGGAAGGCUUCGGUGACGCGAUAGCGCCAACGUCCUCAACCUCCAAUGCAUCCCACCACAUGAUGAUGCCUGAAGAGCCUUGGUUUUUUG | 0.627 |
| GACCAAUAUGCCCUCAGAGCUCGAGAACAUCUUCGGAUGCAGAGGAGGCAGGCUUCGGUGGCGUGAUAGCGCCAACGUCCUCAACCUCCAAUGCGUCCCACCACAUGAUGGUGCCUGAAGAUCCUUGGUUUUUUA | -0.12 |
| GACCAAUAUGCCCUUAGAGCUCGAGAACAUCUUCGGAUGCAGAGGUGGCAGGCUUCGGUGGCGCGAUAGCGCCAACGUCCUCAACCUCCAAUGCAUCCCACCACAUGAUGAUGCCUGGAGAGCCUUGGUUUUUUG | -1.21 |
| GACCAAUAUGCGCCCAGAGCUCGAGAACAUCUUCGGAUGCAGAGGAGGCAGGCUUCGGUGGCGCGAUAGCGCCAACCUCCUCAACCUCCAAUGCAUCCCAACACAUGAUGAUGCCUGAAGAGCCUUGGUUUUUUG | -1.39 |
| GACCAAUAUGGCCUCAGAGCUCGAGAACAUCUUCGGAUGCAGAGGAGGCAGGCUUCGGUGGCGAGAUAGCGCCAACGUCCUCAACCUCCAAUGCAUCCCACCCCAUGAUGAUGCCUGAUAAGCCUUGGUUUUUUG | -6.83 |
| GACCAAUAUGCCCUCAGAGCUCGAGAACAUCUUCGGAUGCAGAGGAGGCAGGCUUCGGUGGUGCGAUAGCGCCUACGUCCUCAACCUCCAAUGCAUCCCACCACAUGAUGAUGCCUGAAGAGCCUUGGUUUUUUG | 0.227 |
| GACCAAUAUGCCCUCAGAGCUCGAGAACAUCUUCGGAUGCAGAGGAGGUAGGCUUCGGUGGCGCGAUAGCGACAACGUCCUCAACCUCCAAUGCAUCCCCCCACAGGAAGAUGCCUGAAGAGCCUUGGUUUCUUG | -4.59 |
| GACCAAUAUGCCCUCAGAGCUCGAGAAAAUCUUCGGAUGCAGAGGAGGCAGGCUUCGGUGGCGCGAUAGCGUCAACGUCCUCAACCUCCAAUGCAUCCCACCACAUGAUGAUGCCUGAAGAGUCUUGGUUUUUUG | -2.54 |
| GACCAAUAUGCCCUCAGAGCUCGAGAACAUCUUCGGAUGCAGAGGAGGCAGGAUUCGGUGGCGCGAUAGCGCCAACGUCCUCAACCUCCAAUGCAUCCCACCACAUGAUGAUGCCUGAAGAGCCUUGGUUUUUUG | 0.281 |
| GACCAAUAUGGCUUCAGAGAUCGAGAACAUCUUCGAAUGCAGAGGAGGCAGGCUUCGGUGGCGCGAUAGCGCCAACGCCCUCAACCUCCAAUGCAUCCCACCACAUGAUGAUGCCUGAAGAGCCUUGGUUUUUUG | -3.05 |
| GACCAAUAUGCCCUCAGAGCUCGAGAAGAUCUUCGGAUGCAGAGGAGGCAGGAUUCGGUGGCGCGAUAGCGCCAACGUCCUCAACCUCCAAUGCAUCCCACCACAUGAUGAUGCCUGAAGAGCCUUGGUUUUUUG | -2.01 |
| GACCAAUAUGCCGUCAGAGCUCGAGAACAUCUUCGGAUGCAGAGGAGGCAGGCUUCGGUCGCGCGAUAGCGCCAACGUCCUCAACCUCCUAUGCAUCCCACCACAUGAGGAUGCCUGAUGAGCCUUGGUUUUUUG | -6.32 |
| GACCAAUAUGCCCUCAGAGUUCGAGAACAUCUUCGGAUGCAGAGGAGGCAGGCUUCGGUGGCGCGAUAGCGCCAACGUCCUCAACCUCCAAUGCAUCCCACCACAUGAUGAUUCCUGUAGAGCCUUGGUUUUUUG | -0.316 |
